System: MS2 coat protein
Test: apparent KD of MS2 coat protein; designed switch direction (-1 OFF switch, 1 ON switch): -1; higher = weaker reporter binding
In short: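 The reported apparent KD is a per-design median over clusters, from curve fits of normalised cluster fluorescence. Protein titrations used SNAP-549-labelled MS2 coat protein, doubled from 0.7 or 1.5 nM to 3 µM, in Tris-HCl pH 7.5 buffer with KCl, MgCl2, BSA, DTT, tRNA and Tween-20, with no input, 200 uM small-molecule ligand, or an oligonucleotide input. The RNA switches were transcribed on Illumina chips by stalled E. coli RNA polymerase.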

[1] = input ligand: microRNA oligo, concentration not stated
[2] = Eterna round: R95, input ligand: FMN 200 uM
[3] = Eterna round: R95, input ligand: microRNA oligo, concentration not stated
[4] = Eterna round: R95, input ligand: none

| Sequence | apparent KD of MS2 coat protein (input ligand: FMN 200 uM) | apparent KD of MS2 coat protein (input ligand: none) | apparent KD of MS2 coat protein [1] | apparent KD of MS2 coat protein [2] | apparent KD of MS2 coat protein [3] | apparent KD of MS2 coat protein [4] |
| --- | --- | --- | --- | --- | --- | --- |
| UGCCGUAGAGGAUAUACAUUGAAAUAGAUUCAUGUAAAACUACAUGAGGAUCACCCAUGUAGAAGGCUAUGGCU [JL-ex2-4.34 Eli mod] (Eterna round: R97, puzzle: Exclusion 2) | 68.4 nM | 23 nM |  |  |  |  |
| GUGCCACAUGAGGAUCACCCAUGUGAGGAUAUGGCCUGUUUGGCGUGUGCUGGCUCUGUCAGAAGGCGCGUGGG [salish99_ex1_r4_037] (Eterna round: R97, puzzle: Exclusion 1) | 39.1 nM | 26.8 nM |  |  |  |  |
| AUGUGCACGCUGCGAUCCUACAUGAGGAUCACCCAUGUGGUCUGGUGGCGUGGGUCACCGGACUUGGCUCGUCUUGC [salish99_S_TOV1_R5_074] (Eterna round: R97, puzzle: Sensor, turn-off variant 1) | 28.1 nM | 27.6 nM |  |  |  |  |
| AACGGGACAGGAUAUGUCACGGAGAACAUGAGGAUCACCCAUGUGGCUUCGUGGUCUGUUGCAGAAGGGUCGAAAU [Vebedi] (Eterna round: R97, puzzle: Exclusion 5) | 19.6 nM | 11.9 nM |  |  |  |  |
| UAGGGUAAGUCAUGUACGAACAUGAGGAUCACCCAUGUAGCUGAAAUAAACCUCGUCCAAAUCUUUCCGUAAAAUGU [Zavein] (Eterna round: R96, puzzle: Sensor v2, turn-off variant) | 271 nM | 295 nM | 211 nM |  |  |  |
| GAUGUGGGUUUUCAGAGUAACAUGAGGAUCACCCAUGUAGAAGUUGAAGGUAUCAAGCGAAUGGCUCGUCAAAUGUG [JR_SV3TOV1_Sub049] (puzzle: Sensor v3, turn-off variant 1) |  |  |  | 229 nM | 182 nM | 287 nM |
| AUAAUAAAGGAGGAUAUCGAUUCGGAAACGAAUCGAGAAGGUCUAACAUGAGGAUCACCCAUGUUCCUCAAAUA [Mat - Exclusion 6 - Eli Mod - D51] (puzzle: Exclusion 6) |  |  |  | 58 nM | 35.6 nM | 27.9 nM |
| UCAAGUAUGUAGGAUAUCGAUGUCGAAAGACAUCGAGAAGGACGUACAUGAGGAUCACCCAUGUAACUUGCAUG [Exclusion 6 - B - 10:f] (puzzle: Exclusion 6) |  |  |  | 32.2 nM | 44.6 nM | 42.3 nM |
| UUUUAACAUGAGGAUCACCCAUGUGAGGAUAUCGUAUUUUUUAUUAAUAUUAAUAAAACGAGAAGGCACAUUUU [JMF 17] (puzzle: Exclusion 1) |  |  |  |  | 86.1 nM |  |
| CUUUGAUGAGGAUAUCGAGGUUAGUACAUGAGGAUCACCCAUGUUAUCCAGGUGUCGGAUCGAGAAGGUAUUGGAC [LRO-Ex5-18] (puzzle: Exclusion 5) |  |  |  |  | 14.8 nM |  |
| GUUGGGUGAUGAUACAUGAGGAUCACCCAUGUUAAAAGUCAUUAGGAUAUCCCGACGGCCGGUUAGGAGAAGGAGUGACCAGGC [Maonma] (Eterna round: R96, puzzle: Exclusion NG 3) | 636 nM | 429 nM | 285 nM |  |  |  |
| CCAAACAGAGGAUAUGCGAAUAAAUAAAACUUUUUUUUUUAACAUGAGGAUCACCCAUGUAGAAGGCUGAAACC [Ex2 #41] (Eterna round: R97, puzzle: Exclusion 2) | 29.3 nM | 27.6 nM |  |  |  |  |
| AGGAUGUGAGGAUAUCCAUCCCGCGAAUACGGGUAAUAAAUGGAGAAGGCACAUGAGGAUCACCCAUGUGAUGA [Ceersois] (Eterna round: R97, puzzle: Exclusion 4) | 262 nM | 54.1 nM |  |  |  |  |
| UAACUUCUUGUAAGGAUAUCGGUCCCAAGGGACAACGAGAAGGUACAUGAGGAUCACCCAUGUGAAAUAAGAAU [Zala] (puzzle: Brourd's mod of Exclusion 4) |  |  |  | 66.6 nM | 22.7 nM | 19.8 nM |
| GGUGGACAUGAGGAUCACCCAUGUGAGGAUAUCGGCCGGCUCGUGGUGGCUGGCUUCUCGAGAAGGCGCAUAGU [Exclusion 1 V75] (puzzle: Exclusion 1) |  |  |  |  | 50.6 nM |  |
| GGCGCCUGAGGAUAUCAGUCUGGAUCAGAAUAGAUCCUGACUGAGAAGGCACAUGAGGAUCACCCAUGUUCGCC [Eli 4x 4.28] (Eterna round: R97, puzzle: Exclusion 4) | 16.4 nM | 14.8 nM |  |  |  |  |
| GUGAAGGUAGGAUAUACGAUAAUAUAGGGUAGAUAUAUAACACAUGAGGAUCACCCAUGUAGAAGGACCAAUUG [Mat - Exclusion 2 - Mod of my Tesla design - D59] (puzzle: Exclusion 2) |  |  |  |  | 29.1 nM |  |
| AAUAAUUGUGACUUGGGCGACAUGAGGAUCACCCAUGUUACAAGCUUGUUGCUCGUCUUAUAAUUAACCCAUGUCAC [LRO Sensor-off var1-23 mod of Stov1-13-A1 by Brourd] (Eterna round: R97, puzzle: Sensor, turn-off variant 1) | 15.8 nM | 18.4 nM |  |  |  |  |

| Sequence | apparent KD of MS2 coat protein (input ligand: FMN 200 uM) | apparent KD of MS2 coat protein (input ligand: none) | apparent KD of MS2 coat protein [1] | apparent KD of MS2 coat protein [2] | apparent KD of MS2 coat protein [3] | apparent KD of MS2 coat protein [4] |
| --- | --- | --- | --- | --- | --- | --- |
| AUACACUAAGUGAGGAUAUCGAUUUCUUUAAGGAUCGAGAAGGCACAUGAGGAUCACCCAUGUUUGACGUGAAU [JR_BMOE4_Sub096] (puzzle: Brourd's mod of Exclusion 4) |  |  |  |  | 30.3 nM |  |
| CUGGUCCGAGGAUAUAUUAUGUGAAACAUGAGGAUCACCCAUGUAAUAUGAUGGAUAUAAAUAGAAGGCGGACUAG [Mat - Exclusion 5 - JL mod - D31] (puzzle: Exclusion 5) |  |  |  | 22.4 nM | 19.9 nM | 31.1 nM |
| CCGAGGUGGCGGUCCUAUGACAUGAGGAUCACCCAUGUACCUCGCCACGAGCUUUUUGCUCAUCUUAUAAUUCUCGG [Edbibice] (puzzle: Sensor v3, turn-off variant 1) |  |  |  | 17.2 nM | 18.9 nM | 16.6 nM |
| GCAGCUUAGUUAACAGACUGUUACAUGAGGAUCACCCAUGUGCAGGAUAUGGUCUGGAUUACAGGCCAGAAGGGUACAAGCUGC [Eli exng3 - 016] (Eterna round: R96, puzzle: Exclusion NG 3) | 12.8 nM | 14.2 nM | 9.37 nM |  |  |  |
| CCGGAAAGGGAGGAUAUAGGAGUCGAUAGACACCUAGAAGGCCUGACAUGAGGAUCACCCAUGUGUCCUACCGG [Fiskers Ex 6 - 91] (puzzle: Exclusion 6) |  |  |  |  | 13.7 nM |  |
| UGUACUAUGCGUGCUGACAUGCGUAGUGCAGCAGGUGUUACAUGAGGAUCACCCAUGUCCUCAUUUGCUCGUCUUAA [Mat - Sensor v3 - Turn-off var 2 - D17] (puzzle: Sensor v3, turn-off variant 2) |  |  |  | 205 nM | 219 nM | 177 nM |
| ACACUACAUGUAGGAUAUGCGUGGCGAAGCUAUGCAGAAGGACAUGAGGAUCACCCAUGUUUUAGCGUCUGCGUACAGAUGCGU [JL ENG1 1.46] (Eterna round: R96, puzzle: Exclusion NG 1) | 44.7 nM | 19.3 nM | 16.4 nM |  |  |  |
| UUGCGGAGAGGAUAUACAUAGGCGGAUUGGUAGACUCAAAUACAUGAGGAUCACCCAUGUAGAAGGCUUGAUCA [Eternabot (L2) Solution 22] (Eterna round: R97, puzzle: Exclusion 2) | 144 nM | 50.4 nM |  |  |  |  |
| UAAUUGUGAGGAUAUCAGGUGUGCUAGCGUACUGGUACAUCUGAGAAGGCACAUGAGGAUCACCCAUGUUCCUU [Mat - Exclusion 4 - Mod of JL - D47] (puzzle: Exclusion 4) |  |  |  |  | 13.6 nM |  |
| AGCUGUGGCCGAGGAUAUCACUACCGAUGGAAAACCAUCGGAACUCCACAUGAGGAUCACCCAUGUGAGAAGGCGGUCUCAGCA [Eli eng2 - 029] (Eterna round: R96, puzzle: Exclusion NG 2) | 24 nM | 15.7 nM | 11.2 nM |  |  |  |
| AAUUAAUGUGUGAGGAUAUUGAUGGAAUGACUUAUUAAGAAGGCACAUGAGGAUCACCCAUGUGGGAAGUCACG [JR_BMEx4_Sub015] (Eterna round: R97, puzzle: Brourd's mod of Exclusion 4) | 27.6 nM | 18.6 nM |  |  |  |  |
| GGGAAGAACCAACAAGCAAACAUGAGGAUCACCCAUGUUAGUGGUUCGAAUGUAAAGAUUAAGAGAGCUCGUCUUAU [AK-miRNA-r3-9] (Eterna round: R97, puzzle: Sensor, turn-off variant 1) | 18 nM | 20.2 nM |  |  |  |  |
| GUAAACGCAGAGGAUAUAUCAGAUCAAAGCUGCAUAGAAGGCUGCACAUGAGGAUCACCCAUGUGGUCUUUAAU [Mat - Exclusion 6 - JL Mod - D3] (Eterna round: R97, puzzle: Exclusion 6) | 203 nM | 21 nM |  |  |  |  |
| GAUCAUGCAGGAUAUACAUUUUCCAUGAAAACAUGGUCCUCACAUGAGGAUCACCCAUGUAGAAGGGCAUGAUC [Omei Ex2 A30] (Eterna round: R97, puzzle: Exclusion 2) | 37.6 nM | 855 nM |  |  |  |  |
| UUAAUGUGAGGAUAUCAGGUGUGCUAGCGUACUGGUACAUCUGAGAAGGCACAUGAGGAUCACCCAUGUUCUUC [JL-ex4-3.30 Brourd mod] (puzzle: Exclusion 4) |  |  |  |  | 32.5 nM |  |
| UACAAUAAGGAGGAUAUCGUAUCGGAAACGAUACGAGAAGGCUUAACAUGAGGAUCACCCAUGUUCUUCAAUAU [Mat - Exclusion 6 - Eli Mod - D97] (puzzle: Exclusion 6) |  |  |  | 18.7 nM | 15.2 nM | 15.6 nM |
| AGCUGUGGCCAAGGAUAUCCAACCUUAAAUACCGACGUAUAGUCGGACAUGAGGAUCACCCAUGUGGAGAAGGUGGUCUCAGCA [Eli eng2 - 042] (Eterna round: R96, puzzle: Exclusion NG 2) | 52.2 nM | 30.1 nM | 33.7 nM |  |  |  |
